Experimental data as given in article PMC10514999, “The PyPIF5-PymiR156a-PySPL9-PyMYB114/MYB10 module regulates light-induced anthocyanin biosynthesis in red pear”.
Substitutions are numbered along the chain they refer to.

B1: Cold-probe (dsDNA)
DNA 1: TTGTAAAGAACACGTACGTTACACGTACGCTGAAACA
DNA 2: TGTTTCAGCGTAGTGTAACGTACGTGTTCTTTACAA
B2: Bio-Mut-probe (dsDNA)
DNA 1: TTGTAAAGAACAGATACGTTACACTACGCTGAAACA
DNA 2: B1 DNA 2 with C23T, G24C

Columns and labels:
PyPIF5 [1] = biological target: T1, PyPIF5 (Pyrus (red pear; cultivar of the cloned …, UniProt A0A5N5GDZ9 1-552); assay: competition; unlabeled competitor of N1; binding gradually reduced; EMSA: 500 ng PyPIF5-His, 20 nM biotin probe, 20 uL with 4 uL 5x EMSA/Gel-Shift buffer (Beyotime GS009), 20 min, room temperature (~25 C); salt and pH not stated; details: protein: recombinant; tags: His (pColdTF vector); chain copies: 2; as N1, 37/36 nt as printed
T1 sequence: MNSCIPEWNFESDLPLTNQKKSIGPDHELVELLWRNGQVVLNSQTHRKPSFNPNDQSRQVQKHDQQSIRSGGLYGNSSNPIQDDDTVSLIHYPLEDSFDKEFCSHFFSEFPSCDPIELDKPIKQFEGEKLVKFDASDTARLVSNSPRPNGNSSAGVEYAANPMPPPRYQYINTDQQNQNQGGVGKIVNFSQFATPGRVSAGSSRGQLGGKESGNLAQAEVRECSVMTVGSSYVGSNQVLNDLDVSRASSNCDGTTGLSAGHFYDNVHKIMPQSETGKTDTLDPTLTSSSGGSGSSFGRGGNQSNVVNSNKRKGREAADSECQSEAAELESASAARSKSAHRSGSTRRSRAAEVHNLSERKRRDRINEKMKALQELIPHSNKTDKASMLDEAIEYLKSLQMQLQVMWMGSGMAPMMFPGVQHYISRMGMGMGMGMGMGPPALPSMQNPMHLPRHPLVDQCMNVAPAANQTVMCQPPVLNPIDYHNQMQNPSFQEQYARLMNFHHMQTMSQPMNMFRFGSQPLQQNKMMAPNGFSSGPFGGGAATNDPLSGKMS

PyPIF5 [2] = biological target: T1, PyPIF5; assay: EMSA; mutant probe, G-box destroyed; Methods also describe it as a competitor; EMSA: 500 ng PyPIF5-His, 20 nM biotin probe, 20 uL with 4 uL 5x EMSA/Gel-Shift buffer (Beyotime GS009), 20 min, room temperature (~25 C); salt and pH not stated; details: protein: recombinant; tags: His (pColdTF vector); chain copies: 2; label: biotin; blunt

Row | Binder | binding result (PyPIF5 [1]) | binding result (PyPIF5 [2])
1 | B1 | binds | 
2 | B2 |  | no binding
